Results on 36 variants are retold here after the Human Domainome abundance scans (Beltran et al. 2025).

± gives the uncertainty stated by the source.

B1: Far upstream element-binding protein 3, residues 75 to 150; numbered along this chain, Q96I24 (parent)
chain: RTVITEEFKVPDKMVGFIIGRGGEQISRIQAESGCKIQIASESSGIPERPCVLTGTPESIEQAKRLLGQIVDRCRN

The data set covers variants of B1. The experiment in a line: abundance fitness (aPCA) (normalised: wild type 0, dead -1); higher = more abundant; growth selection in yeast, the domain comes from the species named. Conditions: Homo sapiens.
RTVITEEFKVPDKMVGFIIGRGGEQISRIQAESGCKIQIASESSKIPERPCVLTGTPESIEQAKRLLGQIVDRCRN: the abundance fitness was -0.093 ± 0.037. With RTVITEEFKVPDKMVGFIIGRGGEQISRIQAESGCKIQIASEASGIPERPCVLTGTPESIEQAKRLLGQIVDRCRN the figure was -0.064 ± 0.039. With RTVITEEFKVPDKMVGFIIGRGGEQISRIQAESGCKIQIASEFSGIPERPCVLTGTPESIEQAKRLLGQIVDRCRN the figure was -0.092 ± 0.1; with RTVITEEFKVPDKMVGFIIGRGGEQISRIQAESGCKIQIASEMSGIPERPCVLTGTPESIEQAKRLLGQIVDRCRN, -0.079 ± 0.047. As for RTVITEEFKVPDKMVGFIIGRGGEQISRIQAESGCKIQIASEISGIPERPCVLTGTPESIEQAKRLLGQIVDRCRN, the abundance fitness worked out at 0.028 ± 0.069. With RTVITEEFKVPDKMVGFIIGRGGEQISRIQAESGCKIQIASEKSGIPERPCVLTGTPESIEQAKRLLGQIVDRCRN the figure was -0.11 ± 0.056; with RTVITEEFKVPDKMVGFIIGRGGEQISRIQAESGCKIQIASEDSGIPERPCVLTGTPESIEQAKRLLGQIVDRCRN, -0.036 ± 0.056. With RTVITEEFKVPDKMVGFIIGRGGEQISRIQAESGCKIQIASECSGIPERPCVLTGTPESIEQAKRLLGQIVDRCRN the figure was 0.017 ± 0.053.

Regarding RTVITEEFKVPDKMVGFIIGRGGEQISRIQAESGCKIQIASELSGIPERPCVLTGTPESIEQAKRLLGQIVDRCRN, the abundance fitness is -0.102 ± 0.035. Turning to RTVITEEFKVPDKMVGFIIGRGGEQISRIQAESGCKIQIASEPSGIPERPCVLTGTPESIEQAKRLLGQIVDRCRN, the abundance fitness was 0.018 ± 0.051. With RTVITEEFKVPDKMVGFIIGRGGEQISRIQAESGCKIQIASEQSGIPERPCVLTGTPESIEQAKRLLGQIVDRCRN the figure was -0.055 ± 0.045; with RTVITEEFKVPDKMVGFIIGRGGEQISRIQAESGCKIQIASEWSGIPERPCVLTGTPESIEQAKRLLGQIVDRCRN, -0.155 ± 0.038; with RTVITEEFKVPDKMVGFIIGRGGEQISRIQAESGCKIQIASENSGIPERPCVLTGTPESIEQAKRLLGQIVDRCRN, -0.125 ± 0.098.

RTVITEEFKVPDKMVGFIIGRGGEQISRIQAESGCKIQIASEVSGIPERPCVLTGTPESIEQAKRLLGQIVDRCRN: the abundance fitness was -0.057 ± 0.032. RTVITEEFKVPDKMVGFIIGRGGEQISRIQAESGCKIQIASEESGIPERPCVLTGTPESIEQAKRLLGQIVDRCRN: the abundance fitness is -0.049 ± 0.039.

As for RTVITEEFKVPDKMVGFIIGRGGEQISRIQAESGCKIQIASERSGIPERPCVLTGTPESIEQAKRLLGQIVDRCRN, the abundance fitness is -0.079 ± 0.03. With RTVITEEFKVPDKMVGFIIGRGGEQISRIQAESGCKIQIASEGSGIPERPCVLTGTPESIEQAKRLLGQIVDRCRN the figure was -0.041 ± 0.027. With RTVITEEFKVPDKMVGFIIGRGGEQISRIQAESGCKIQIAYESSGIPERPCVLTGTPESIEQAKRLLGQIVDRCRN the figure was -0.164 ± 0.069. With RTVITEEFKVPDKMVGFIIGRGGEQISRIQAESGCKIQIAWESSGIPERPCVLTGTPESIEQAKRLLGQIVDRCRN the figure was -0.159 ± 0.033. For the variant RTVITEEFKVPDKMVGFIIGRGGEQISRIQAESGCKIQIASYSSGIPERPCVLTGTPESIEQAKRLLGQIVDRCRN, the abundance fitness was -0.086 ± 0.057. Turning to RTVITEEFKVPDKMVGFIIGRGGEQISRIQAESGCKIQIASGSSGIPERPCVLTGTPESIEQAKRLLGQIVDRCRN, the abundance fitness was -0.013 ± 0.028. On to RTVITEEFKVPDKMVGFIIGRGGEQISRIQAESGCKIQIASASSGIPERPCVLTGTPESIEQAKRLLGQIVDRCRN, for which the abundance fitness is -0.039 ± 0.037.

For RTVITEEFKVPDKMVGFIIGRGGEQISRIQAESGCKIQIASHSSGIPERPCVLTGTPESIEQAKRLLGQIVDRCRN, the abundance fitness was found to be 0.01 ± 0.084. With RTVITEEFKVPDKMVGFIIGRGGEQISRIQAESGCKIQIASISSGIPERPCVLTGTPESIEQAKRLLGQIVDRCRN the figure was -0.139 ± 0.077.

As for RTVITEEFKVPDKMVGFIIGRGGEQISRIQAESGCKIQIASDSSGIPERPCVLTGTPESIEQAKRLLGQIVDRCRN, the abundance fitness was -0.023 ± 0.048. As for RTVITEEFKVPDKMVGFIIGRGGEQISRIQAESGCKIQIASTSSGIPERPCVLTGTPESIEQAKRLLGQIVDRCRN, the abundance fitness is -0.04 ± 0.041.

RTVITEEFKVPDKMVGFIIGRGGEQISRIQAESGCKIQIASKSSGIPERPCVLTGTPESIEQAKRLLGQIVDRCRN: the abundance fitness was -0.047 ± 0.052. With RTVITEEFKVPDKMVGFIIGRGGEQISRIQAESGCKIQIASSSSGIPERPCVLTGTPESIEQAKRLLGQIVDRCRN the figure was -0.037 ± 0.037; with RTVITEEFKVPDKMVGFIIGRGGEQISRIQAESGCKIQIASQSSGIPERPCVLTGTPESIEQAKRLLGQIVDRCRN, -0.035 ± 0.042; with RTVITEEFKVPDKMVGFIIGRGGEQISRIQAESGCKIQIASWSSGIPERPCVLTGTPESIEQAKRLLGQIVDRCRN, -0.069 ± 0.035.

For RTVITEEFKVPDKMVGFIIGRGGEQISRIQAESGCKIQIASNSSGIPERPCVLTGTPESIEQAKRLLGQIVDRCRN, the abundance fitness was -0.043 ± 0.065. For RTVITEEFKVPDKMVGFIIGRGGEQISRIQAESGCKIQIASRSSGIPERPCVLTGTPESIEQAKRLLGQIVDRCRN, the abundance fitness turned out to be 0.005 ± 0.029. With RTVITEEFKVPDKMVGFIIGRGGEQISRIQAESGCKIQIASVSSGIPERPCVLTGTPESIEQAKRLLGQIVDRCRN the figure was -0.041 ± 0.032; with RTVITEEFKVPDKMVGFIIGRGGEQISRIQAESGCKIQIASPSSGIPERPCVLTGTPESIEQAKRLLGQIVDRCRN, -0.037 ± 0.047. With RTVITEEFKVPDKMVGFIIGRGGEQISRIQAESGCKIQIASFSSGIPERPCVLTGTPESIEQAKRLLGQIVDRCRN the figure was -0.093 ± 0.063; with RTVITEEFKVPDKMVGFIIGRGGEQISRIQAESGCKIQIASLSSGIPERPCVLTGTPESIEQAKRLLGQIVDRCRN, -0.086 ± 0.034.
